{
  "source": "the domain aggregation screens of Martell et al. (2025)",
  "data": [
    {"assay": "soluble fraction after stress (log2 fold change); higher = more stays soluble; pooled small domains, quantitative proteomics", "conditions": "stress: 75 degC", "values": [
      {"sequence": "HMVNLLVTPLEELEINFRTLRALRKYNIYQLEDLLRFIKYNGFDALRIVPGMGIKSTEQLYEKLKDKNI", "soluble fraction (log2)": -0.112},
      {"sequence": "HMVNTVEVQGNTIYSAEEIRSASGIQKGDNLFTLNKEAAAGSIKASLPYVETVSIIRFLPDKIVIEVKE", "soluble fraction (log2)": -0.57},
      {"sequence": "HMVNVLKNSTVIDLVKNNLSDALIISLIRRAKVDFSLMTDDVIELSGKGVSPAVIMEMRQAMIRQASEIQN", "soluble fraction (log2)": -0.318},
      {"sequence": "HMVNVTEAIDLENGTGKLSGTFNHEPKSAEEIIFLLKIDTNKWKLSQYWNKQMGDHWRVSALISQI", "soluble fraction (log2)": -2.82},
      {"sequence": "HMVPAMEVALEDARRAIEQVVSGERTSVQLSSQEAMIRKLQHQMAKDANLFSRSSGVEPQRRVTIYTN", "soluble fraction (log2)": 0.0142},
      {"sequence": "HMVPHQPRVWTNTAGKTITAAFVRFNAAGRKVSLKLEKGRQVELPLASLSGNDVDWIKEHVPEAMSNQE", "soluble fraction (log2)": -1.06},
      {"sequence": "HMVPISGADFEKLSDYILQKAGAGSIQVKELLAGLKGMHEKNLWKAIDYLLAEEKIRIDKGGNISVK", "soluble fraction (log2)": -0.322},
      {"sequence": "HMVPQAVQDIKAYLASGALPYIGPATAKKIVAMFGSDALDVIAEHPEQLTAIRGLNEEKANAIHQEFRRQF", "soluble fraction (log2)": -0.259},
      {"sequence": "HMVPSSHNIAQKVKQIKINDLWLDVRERYIYLKNLYLSHPLEKDHPSFIVYVEAVNQIYNQYF", "soluble fraction (log2)": -0.0707},
      {"sequence": "HMVQDDLRELEGISTELLAKLADAGITNRDDLADLAIDELVAITGQSEDDAKALIMKAREHWFAGDA", "soluble fraction (log2)": 0.0246},
      {"sequence": "HMVQIIQLQGTDKRLYELVAPLVMNPEILKQNYNYPFRTSEDFVWFVAVDKKKVIGFIPVEEKKKEYVI", "soluble fraction (log2)": -0.108},
      {"sequence": "HMVRKGEINFDQLSVRARNALRNMNILFEKEILKLTEYDLKSIPNLGVKTTNELLSYIKRLQTNQKEE", "soluble fraction (log2)": -1.47},
      {"sequence": "HMVRRSERLHALTESLRRSGNRGRTAEQLATEFEVSVRTIKRDLVALEASGLPLWSRPGPGGGYGLLS", "soluble fraction (log2)": -0.953},
      {"sequence": "HMVRTIKILGIKHNINLYYKNVKVPTMNVKNQTLEIILPNKYKKFQEEQILKVLTQKLYDKIAETEIEKIK", "soluble fraction (log2)": -1.11},
      {"sequence": "HMVSAEQNTLEFIKENVKEDVIEDDIEFYKSLLEDWSVEVDNSSKLLDPGNNNSLLAVIAYSIENEL", "soluble fraction (log2)": 0.232},
      {"sequence": "HMVSDAWITGKVKSQLLADDVTPGMKIDVDTEDRIVSLKGTVPSLTARNEAIRIASHTKGVRTVDADELIV", "soluble fraction (log2)": 0.17},
      {"sequence": "HMVSFAEQASDWLAHFDRLGDVGPDTTLTDLTARDAEFSAWVNEGIHHRVAFLETLAAWHRTER", "soluble fraction (log2)": -0.627},
      {"sequence": "HMVSGLEILKIQVQDHPSDWRWALLLARTHYENGNREAAVRTLRPLQRLHPDRLEVMTLWALLA", "soluble fraction (log2)": -0.194},
      {"sequence": "HMVSGSPTVDILMQRGLEYQQQENLEAARDAFDRAINLKPDYAEAWNRRAVLFFNEGKYDEAIADLETAIT", "soluble fraction (log2)": 0.136},
      {"sequence": "HMVSKEELANSIYENKTADELGNIVLRKGKYSGEMLRTIYVKDIGYLEWHSKQSYEYSNAVKWYLKKLE", "soluble fraction (log2)": -1.37},
      {"sequence": "HMVSLEEIINDLTSRIQTAVKMRFSDFVQNRKERVGVIVSFLGMLELVKQGIIDIKQEGHFADIEMETA", "soluble fraction (log2)": -0.347},
      {"sequence": "HMVSLSENQKIVLESLNTAMSARELMEILNLSDISHFRRNILNPLLLEGLIVRTKPDKPKSSKQKYIKANF", "soluble fraction (log2)": -1.69},
      {"sequence": "HMVSPEVEMLRAAVETMSERQKQVYELHYLRGFNVKETAAILGMSSPTVTAHKKRIMEIIKKFFE", "soluble fraction (log2)": -1.46},
      {"sequence": "HMVSPFQQQIADKVHNEIIAAKFNYDNATNENERLLAQLQAKKARELANQYGLDMSSYGADTTAERS", "soluble fraction (log2)": 0.61},
      {"sequence": "HMVSSAEQQARDKESGMILVQEAGGPDKARALVEKMRQDIRNPALDGTRRQMLRGHVARIELALAELETG", "soluble fraction (log2)": -0.0254},
      {"sequence": "HMVSVGDIFAGRIISNENGHLLLQLLDGSKISAQTVTDLKYNIGDVLNLEIIEEKQGLIFVRQT", "soluble fraction (log2)": -2.05},
      {"sequence": "HMVSVLGRRIKELRLQNSMTQMQLAKKLGYKGNSLVAGWELGKNYPSVSSIKRLSEIFDTDLMKYVG", "soluble fraction (log2)": -2.53},
      {"sequence": "HMVTDTGAIEKVIDEVIAANPKQVQEIADQRAAGHEKPKTLGWLVGQIMKASGGKVNPAAVNEILLKKLG", "soluble fraction (log2)": 0.0887},
      {"sequence": "HMVTFDEISQSLVRDVAARRSLSVQTLHAMVDRYNAGSSINAVANQYGIDRLKLREILIELGVHVAT", "soluble fraction (log2)": -2.4},
      {"sequence": "HMVTLQEVKQYLRIDFEEEDPLLLSLLATAKQQVMNVGRMDEAQLSEHEDTARTAILYAVSYLYENRN", "soluble fraction (log2)": -1.82},
      {"sequence": "HMVTPAQQARDTLLGALVGLARATTSEPKTDDTDVVLNAGLRLAAQPDAPEERLQRMLAIVQTEKHRV", "soluble fraction (log2)": 0.138},
      {"sequence": "HMVTVNAFGKSGPEPAAMTKEALAKGADEVRVIVDSPTAAASVRDFLIGAGLRVQLQDDEGQLIVVGEKK", "soluble fraction (log2)": 0.318},
      {"sequence": "HMVVDEQRIQTLVSAAEQNSSDPVPRVTLGNLYFDAEQFEEAVKWYEQALALDPRNVNVSTDLGVGYYY", "soluble fraction (log2)": 0.113},
      {"sequence": "HMVVKLTQEQDRFIKTFNDKSLAFYYISSWGWGSFLRNGIGGVYEGDKTPFTLDEKEKMLNAIINGYEVI", "soluble fraction (log2)": -2.02},
      {"sequence": "HMVVKSPLEMAFDKFREMRKKIRKPMTERAEELIWKELSKLAGEDSDLKIEILEQSIRNGWQDVYAVK", "soluble fraction (log2)": -0.623},
      {"sequence": "HMVVLPGEVVALKIIQTGSSKDQGVGYLEDGTMVVVDGAKNSIGKTIEIQISRSHQTVAGRMLFGIAMS", "soluble fraction (log2)": -2.72},
      {"sequence": "HMVVQTELVRISITSLSGEDIRRLVQIKVVGATIEPFEGGGFLITGTAEQIAKAKDFLNSMSTEF", "soluble fraction (log2)": -2.42},
      {"sequence": "HMVVRKHDRYYTPEHRKLLMDTYERTNKYPTKQDMSELAKIIGVLPIKILWWYTHRRRQDRRKGEESSSP", "soluble fraction (log2)": 0.0496}
    ]}
  ]
}
